Read-outs that look alike come from different tables or passages of the source. One block for each molecule: values may come before it.
Tests used:
[1] = molecular target: IKK1 (1–676) (human) (UniProt O15111); assay: SEC
[2] = molecular target: purified human IKK1 used for single-particle cryo-EM (human) (UniProt O15111); assay: cryo-EM structure
[3] = molecular target: purified human IKK1 used for single-particle cryo-EM (human) (UniProt O15111); assay: cryo-EM structure; remark: listed apart in the source
[4] = molecular target: T1, HA-IKK1 WT overexpressed in 293T cells (human), O15111; assay: SEC; settings: remark: other sources report otherwise
T1 chain: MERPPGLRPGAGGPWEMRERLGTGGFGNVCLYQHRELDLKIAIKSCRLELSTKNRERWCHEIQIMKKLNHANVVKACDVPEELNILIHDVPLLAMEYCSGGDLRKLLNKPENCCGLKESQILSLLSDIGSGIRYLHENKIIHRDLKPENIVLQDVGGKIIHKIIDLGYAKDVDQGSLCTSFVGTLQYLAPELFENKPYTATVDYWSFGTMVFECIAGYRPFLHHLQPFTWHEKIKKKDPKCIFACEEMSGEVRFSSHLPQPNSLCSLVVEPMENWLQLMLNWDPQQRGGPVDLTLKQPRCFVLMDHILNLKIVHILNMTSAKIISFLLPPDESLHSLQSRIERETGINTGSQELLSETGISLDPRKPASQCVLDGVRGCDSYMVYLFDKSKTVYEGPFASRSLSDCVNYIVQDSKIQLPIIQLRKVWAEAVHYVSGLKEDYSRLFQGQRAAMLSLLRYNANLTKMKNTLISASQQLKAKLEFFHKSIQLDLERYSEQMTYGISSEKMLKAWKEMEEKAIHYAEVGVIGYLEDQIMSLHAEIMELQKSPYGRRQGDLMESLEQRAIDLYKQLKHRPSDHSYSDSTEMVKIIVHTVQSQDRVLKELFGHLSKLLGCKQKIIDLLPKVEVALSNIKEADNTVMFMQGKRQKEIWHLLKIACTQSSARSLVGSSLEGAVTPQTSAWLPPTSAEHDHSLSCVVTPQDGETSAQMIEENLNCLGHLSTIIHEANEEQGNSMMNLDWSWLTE

[5] = molecular target: the molecule itself; assay: SEC
[6] = molecular target: T2, human IKK1 (residues 10–667; EE) (human), O15111; assay: crystal structure; settings: remark: other sources report otherwise
T2 chain: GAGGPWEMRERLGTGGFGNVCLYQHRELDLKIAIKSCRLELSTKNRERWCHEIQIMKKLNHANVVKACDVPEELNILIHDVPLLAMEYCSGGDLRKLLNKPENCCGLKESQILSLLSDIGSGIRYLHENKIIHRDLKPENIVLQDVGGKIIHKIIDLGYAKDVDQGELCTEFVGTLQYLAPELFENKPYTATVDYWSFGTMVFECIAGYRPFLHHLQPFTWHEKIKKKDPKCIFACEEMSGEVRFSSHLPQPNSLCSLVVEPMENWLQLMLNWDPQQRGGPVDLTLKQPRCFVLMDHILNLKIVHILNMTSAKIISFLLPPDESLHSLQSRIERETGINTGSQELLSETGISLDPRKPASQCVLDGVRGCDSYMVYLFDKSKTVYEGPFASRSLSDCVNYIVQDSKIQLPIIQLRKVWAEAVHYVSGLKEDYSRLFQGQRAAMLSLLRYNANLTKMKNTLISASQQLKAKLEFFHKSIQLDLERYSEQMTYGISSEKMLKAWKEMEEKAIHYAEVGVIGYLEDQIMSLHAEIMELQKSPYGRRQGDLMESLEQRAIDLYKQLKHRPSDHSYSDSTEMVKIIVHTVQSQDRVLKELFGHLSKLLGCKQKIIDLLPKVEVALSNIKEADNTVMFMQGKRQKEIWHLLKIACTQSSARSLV

[7] = molecular target: T2, human IKK1 (residues 10–667; EE) …; assay: crystal structure; settings: remark: other sources report otherwise
[8] = molecular target: the molecule itself; assay: SEC; remark: listed apart in the source

stoichiometry N [1]: 2
Molecule: IKK1 (1–676) (from UniProt O15111 1-676) (domain or fragment)

stoichiometry N [2]: 2
percent of particles not conforming to dimers (hexamer) [3]: 2%
stoichiometry N [3]: 6
Molecule: purified human IKK1 used for single-particle cryo-EM (from UniProt O15111 10-660) (enzyme)

stoichiometry N [4]: 2
B1: HA-IKK1 WT overexpressed in 293T cells, O15111 1-745 (enzyme)
chain: MERPPGLRPGAGGPWEMRERLGTGGFGNVCLYQHRELDLKIAIKSCRLELSTKNRERWCHEIQIMKKLNHANVVKACDVPEELNILIHDVPLLAMEYCSGGDLRKLLNKPENCCGLKESQILSLLSDIGSGIRYLHENKIIHRDLKPENIVLQDVGGKIIHKIIDLGYAKDVDQGSLCTSFVGTLQYLAPELFENKPYTATVDYWSFGTMVFECIAGYRPFLHHLQPFTWHEKIKKKDPKCIFACEEMSGEVRFSSHLPQPNSLCSLVVEPMENWLQLMLNWDPQQRGGPVDLTLKQPRCFVLMDHILNLKIVHILNMTSAKIISFLLPPDESLHSLQSRIERETGINTGSQELLSETGISLDPRKPASQCVLDGVRGCDSYMVYLFDKSKTVYEGPFASRSLSDCVNYIVQDSKIQLPIIQLRKVWAEAVHYVSGLKEDYSRLFQGQRAAMLSLLRYNANLTKMKNTLISASQQLKAKLEFFHKSIQLDLERYSEQMTYGISSEKMLKAWKEMEEKAIHYAEVGVIGYLEDQIMSLHAEIMELQKSPYGRRQGDLMESLEQRAIDLYKQLKHRPSDHSYSDSTEMVKIIVHTVQSQDRVLKELFGHLSKLLGCKQKIIDLLPKVEVALSNIKEADNTVMFMQGKRQKEIWHLLKIACTQSSARSLVGSSLEGAVTPQTSAWLPPTSAEHDHSLSCVVTPQDGETSAQMIEENLNCLGHLSTIIHEANEEQGNSMMNLDWSWLTE

B2: HA-IKK1 HY (H578A Y580A) overexpressed in 293T cells (enzyme, human, UniProt O15111 1-745, looked up)
chain: MERPPGLRPGAGGPWEMRERLGTGGFGNVCLYQHRELDLKIAIKSCRLELSTKNRERWCHEIQIMKKLNHANVVKACDVPEELNILIHDVPLLAMEYCSGGDLRKLLNKPENCCGLKESQILSLLSDIGSGIRYLHENKIIHRDLKPENIVLQDVGGKIIHKIIDLGYAKDVDQGSLCTSFVGTLQYLAPELFENKPYTATVDYWSFGTMVFECIAGYRPFLHHLQPFTWHEKIKKKDPKCIFACEEMSGEVRFSSHLPQPNSLCSLVVEPMENWLQLMLNWDPQQRGGPVDLTLKQPRCFVLMDHILNLKIVHILNMTSAKIISFLLPPDESLHSLQSRIERETGINTGSQELLSETGISLDPRKPASQCVLDGVRGCDSYMVYLFDKSKTVYEGPFASRSLSDCVNYIVQDSKIQLPIIQLRKVWAEAVHYVSGLKEDYSRLFQGQRAAMLSLLRYNANLTKMKNTLISASQQLKAKLEFFHKSIQLDLERYSEQMTYGISSEKMLKAWKEMEEKAIHYAEVGVIGYLEDQIMSLHAEIMELQKSPYGRRQGDLMESLEQRAIDLYKQLKHRPSDASASDSTEMVKIIVHTVQSQDRVLKELFGHLSKLLGCKQKIIDLLPKVEVALSNIKEADNTVMFMQGKRQKEIWHLLKIACTQSSARSLVGSSLEGAVTPQTSAWLPPTSAEHDHSLSCVVTPQDGETSAQMIEENLNCLGHLSTIIHEANEEQGNSMMNLDWSWLTE
stoichiometry N [5]: 2

stoichiometry N [6]: 2
stoichiometry N [7]: 6
B3: human IKK1 (residues 10–667; EE), O15111 10-667 (domain or fragment)
chain: GAGGPWEMRERLGTGGFGNVCLYQHRELDLKIAIKSCRLELSTKNRERWCHEIQIMKKLNHANVVKACDVPEELNILIHDVPLLAMEYCSGGDLRKLLNKPENCCGLKESQILSLLSDIGSGIRYLHENKIIHRDLKPENIVLQDVGGKIIHKIIDLGYAKDVDQGELCTEFVGTLQYLAPELFENKPYTATVDYWSFGTMVFECIAGYRPFLHHLQPFTWHEKIKKKDPKCIFACEEMSGEVRFSSHLPQPNSLCSLVVEPMENWLQLMLNWDPQQRGGPVDLTLKQPRCFVLMDHILNLKIVHILNMTSAKIISFLLPPDESLHSLQSRIERETGINTGSQELLSETGISLDPRKPASQCVLDGVRGCDSYMVYLFDKSKTVYEGPFASRSLSDCVNYIVQDSKIQLPIIQLRKVWAEAVHYVSGLKEDYSRLFQGQRAAMLSLLRYNANLTKMKNTLISASQQLKAKLEFFHKSIQLDLERYSEQMTYGISSEKMLKAWKEMEEKAIHYAEVGVIGYLEDQIMSLHAEIMELQKSPYGRRQGDLMESLEQRAIDLYKQLKHRPSDHSYSDSTEMVKIIVHTVQSQDRVLKELFGHLSKLLGCKQKIIDLLPKVEVALSNIKEADNTVMFMQGKRQKEIWHLLKIACTQSSARSLV

B4: IKK2 (1–700) (domain or fragment, UniProt O14920 1-700, looked up)
chain: MSWSPSLTTQTCGAWEMKERLGTGGFGNVIRWHNQETGEQIAIKQCRQELSPRNRERWCLEIQIMRRLTHPNVVAARDVPEGMQNLAPNDLPLLAMEYCQGGDLRKYLNQFENCCGLREGAILTLLSDIASALRYLHENRIIHRDLKPENIVLQQGEQRLIHKIIDLGYAKELDQGSLCTSFVGTLQYLAPELLEQQKYTVTVDYWSFGTLAFECITGFRPFLPNWQPVQWHSKVRQKSEVDIVVSEDLNGTVKFSSSLPYPNNLNSVLAERLEKWLQLMLMWHPRQRGTDPTYGPNGCFKALDDILNLKLVHILNMVTGTIHTYPVTEDESLQSLKARIQQDTGIPEEDQELLQEAGLALIPDKPATQCISDGKLNEGHTLDMDLVFLFDNSKITYETQISPRPQPESVSCILQEPKRNLAFFQLRKVWGQVWHSIQTLKEDCNRLQQGQRAAMMNLLRNNSCLSKMKNSMASMSQQLKAKLDFFKTSIQIDLEKYSEQTEFGITSDKLLLAWREMEQAVELCGRENEVKLLVERMMALQTDIVDLQRSPMGRKQGGTLDDLEEQARELYRRLREKPRDQRTEGDSQEMVRLLLQAIQSFEKKVRVIYTQLSKTVVCKQKALELLPKVEEVVSLMNEDEKTVVRLQEKRQKELWNLLKIACSKVRGPVSGSPDSMNASRLSQPGQLMSQPSTASNSLPE
stoichiometry N [8]: 2

Source: paper PMC5508515 (Cell reports, 2016)
